From patent publication US12268749B2, “Cell-penetrating peptides” (Oxford University Innovation Limited, priority 2018, dated 2025)

Assays:
[1] = toxicological assessment of peptide-PMO in C57BL/6 mice (urinary KIM-1, NGAL; serum BUN); assay type: in vivo, mouse; settings: 7 days after single dose of 30 mg/kg, FIG. 7
Experimental: Female C57BL/6 mice aged 8-10 weeks were administered a single 30 mg/kg dose of peptide-PMO in 0.9% saline by bolus intravenous tail vein injection. Urine was non-invasively collected under chilled conditions at Day 2 and Day 7 post-administration following 20 hours housing in metabolic cages (Tecniplast, UK). Serum was collected from jugular vein at Day 7 at necropsy, as was tibialis anterior, diaphragm and heart tissue.
The same procedure was followed at different single dosage amounts ranging from 2.5 mg/kg up to 50 mg/kg of peptide-PMO in 0.9% saline by intravenous tail vein injection.
Urinary levels of KIM-1 (Kidney injury molecule-1) and NGAL (Neutrophil Gelatinase-Associated Lipocalin) were quantified by ELISA (KIM-1 R&D cat #MKM100, NGAL R&D cat #MLCN20) following appropriate dilution of urine to fit standard curves. Values were normalised to urinary creatinine levels that were quantified at MRC Harwell Institute, Mary Lyon Centre, Oxfordshire, UK. Serum blood urea nitrogen levels were quantified at MRC Harwell Institute, Mary Lyon Centre, Oxfordshire, UK.
All levels were quanitifed on an AU680 Clinical Chemistry Analyser, Beckman Coulter.

[2] = test system: exon 51; settings: in vivo; cited from earlier work

Substance	Serum blood urea nitrogen levels [1]	levels of dystrophin restoration [2]
Ac-RXRRBRR-FQILY-RBRXR-B [Pip9b2]	elevated	–
eteplirsen	–	approximately 1 % of normal dystrophin levels
